What was measured:
Assay in all cases: SPR; IgGs or Fc fusions captured on antihuman Fc polyclonal antibodies amine-coupled to a CM5 chip; spike trimer or CD3 epsilon-delta heterodimer injected; blank flow cell subtracted; 1:1 Langmuir model, simultaneous global fit of ka and kd, KD = kd/ka; BIAcore 2000 (methods) or BIAcore T100 (footnote of Table S3)
[1] = target: ectodomain of the S trimer from the prototypic SARS-CoV-2 Wuhan-Hu-1 strain (SARS-CoV-2 Wuhan-Hu-1) (UniProt P0DTC2)
[2] = target: SA07, anti-S/CD3 bispecific antibody-like molecule from ACE2-Fc/UCHT1 (UniProt Q9BYF1)
[3] = target: SS12, anti-S/CD3 bispecific CrossMab from S3H3/UCHT1
SS12, anti-S/CD3 bispecific CrossMab from S3H3/UCHT1, sequence (heavy, as listed by the source, chain 1 of 4): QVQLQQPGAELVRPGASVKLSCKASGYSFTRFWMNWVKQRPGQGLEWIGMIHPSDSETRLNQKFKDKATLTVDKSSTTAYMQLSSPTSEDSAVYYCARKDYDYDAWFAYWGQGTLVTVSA
SS12, anti-S/CD3 bispecific CrossMab from S3H3/UCHT1, sequence (heavy, as listed by the source, chain 2 of 4): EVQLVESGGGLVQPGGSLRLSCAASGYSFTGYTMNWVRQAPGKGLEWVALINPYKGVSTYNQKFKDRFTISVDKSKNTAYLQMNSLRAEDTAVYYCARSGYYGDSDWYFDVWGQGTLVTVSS
SS12, anti-S/CD3 bispecific CrossMab from S3H3/UCHT1, sequence (light, as listed by the source, chain 3 of 4): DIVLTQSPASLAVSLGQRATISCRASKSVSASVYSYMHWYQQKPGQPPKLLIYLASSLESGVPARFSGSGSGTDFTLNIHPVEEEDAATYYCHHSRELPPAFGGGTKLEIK
SS12, anti-S/CD3 bispecific CrossMab from S3H3/UCHT1, sequence (light, as listed by the source, chain 4 of 4): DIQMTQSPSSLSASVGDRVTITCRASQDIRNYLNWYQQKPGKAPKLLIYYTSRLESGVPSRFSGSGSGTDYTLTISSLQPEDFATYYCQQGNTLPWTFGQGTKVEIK

## SC02, anti-S/CD3 bispecific CrossMab from CV3-25/UCHT1 (bispecific antibody)
[1]
  Kd: 4.82 nM
  koff: 0.00436 s⁻¹
  kon: 904000 M⁻¹ s⁻¹

## ectodomain of the S trimer from the prototypic SARS-CoV-2 Wuhan-Hu-1 strain (from UniProt P0DTC2 14-1213) (domain or fragment)
[2]
  Kd: 9.39 nM
[3]
  Kd: 6.2 nM

— PMC12005765 (Advanced Science, 2025)
